Assay results taken from article PMC12432433.

Key:
[1] = molecular target: LbXyn43B/Thr274Ala (Levilactobacillus brevis DSM 1269); experiment: SEC; Sephacryl S-300 (110 mL), 0.1 mL/min, 50 mM sodium phosphate, 150 mM NaCl, pH 7.0; calibrated with molecular weight standards of 20-700 kDa; apparent molecular mass
[2] = molecular target: LbXyn43B/Thr274Ala (Levilactobacillus brevis DSM 1269); experiment: SEC-MALS; OMNISEC multi-detection SEC: Superdex 200 Increase 10/300 GL, light scattering (RALS 90°, LALS 7°), refractive index, viscometer, UV/VIS; 50 µL of 4.5 mg/mL injected in triplicate; 50 mM sodium phosphate, pH 7, 150 mM NaCl; 0.5 mL/min
[3] = molecular target: β-D-xylosidase LbXyn43B from Levilactobacillus brevis DSM1269 (Levilactobacillus brevis DSM 1269); experiment: crystal structure; X-ray, 1.9 Å, space group P 1 21 1, four chains (A-D); crystals from 27-29% PEG 1500, 60-140 mM malonate-imidazole-borate buffer, pH 4.0-4.5, 4°C
[4] = molecular target: β-D-xylosidase LbXyn43B from Levilactobacillus brevis DSM1269 (Levilactobacillus brevis DSM 1269); experiment: SEC; Sephacryl S-300 (110 mL), 0.1 mL/min, 50 mM sodium phosphate, 150 mM NaCl, pH 7.0; calibrated with molecular weight standards of 20-700 kDa; apparent molecular mass
[5] = molecular target: β-D-xylosidase LbXyn43B from Levilactobacillus brevis DSM1269 (Levilactobacillus brevis DSM 1269); experiment: SEC-MALS; OMNISEC multi-detection SEC: Superdex 200 Increase 10/300 GL, light scattering (RALS 90°, LALS 7°), refractive index, viscometer, UV/VIS; 50 µL of 4.5 mg/mL injected in triplicate; 50 mM sodium phosphate, pH 7, 150 mM NaCl; 0.5 mL/min

Substance: LbXyn43B/Thr274Ala (enzyme)
- stoichiometry N [1]: 3
- fraction of sample in peak 1 (tetramer) [2]: 91.3%
- stoichiometry N [2]: 4

Substance: β-D-xylosidase LbXyn43B from Levilactobacillus brevis DSM1269 (enzyme)
- stoichiometry N [3]: 4
- stoichiometry N [4]: 4
- fraction of sample in peak 1 (tetramer) [5]: 84.9%
- stoichiometry N [5]: 4
